# Test results: patent US20260209365A1, “ANTI-COMMON GAMMA CHAIN PROTEINS AND COMPOSITIONS OF MATTER” (SINOMAB BIOSCIENCE LIMITED, priority 2023, published 2026)
# T1: γc proteins from human (Homo sapiens, UniProt P31785)
# T1 construct: extracellular domain of human γc protein (amino acids: 1-262); host or cells: Expi-CHO (e.g.)
# T1 sequence (P31785 23-262): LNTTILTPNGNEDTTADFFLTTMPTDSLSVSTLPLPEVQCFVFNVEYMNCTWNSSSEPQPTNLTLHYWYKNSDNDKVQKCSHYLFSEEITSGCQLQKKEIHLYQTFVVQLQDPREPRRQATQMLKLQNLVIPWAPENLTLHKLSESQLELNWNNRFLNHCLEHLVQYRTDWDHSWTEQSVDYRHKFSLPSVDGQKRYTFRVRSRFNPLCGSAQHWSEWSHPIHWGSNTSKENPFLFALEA
# T2: native γc proteins from human (Homo sapiens, UniProt P31785)
# T2 construct: transfected with plasmid expressing full length γc protein from human; expressed in transfected cells; host or cells: HEK-293
# T2 sequence (P31785 23-369): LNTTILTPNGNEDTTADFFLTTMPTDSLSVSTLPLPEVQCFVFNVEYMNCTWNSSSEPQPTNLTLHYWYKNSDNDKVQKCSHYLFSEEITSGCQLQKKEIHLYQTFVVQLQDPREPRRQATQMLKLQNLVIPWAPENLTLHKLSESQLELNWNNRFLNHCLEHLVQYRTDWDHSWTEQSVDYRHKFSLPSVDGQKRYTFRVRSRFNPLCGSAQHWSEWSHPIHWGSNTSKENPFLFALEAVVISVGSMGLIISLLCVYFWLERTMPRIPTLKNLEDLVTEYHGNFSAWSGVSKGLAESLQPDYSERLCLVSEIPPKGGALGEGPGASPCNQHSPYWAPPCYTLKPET
# T3: human γc protein (Homo sapiens, UniProt P31785)
# T3 construct: endogenous in cells; host or cells: Ramos B cells
# T3 sequence (P31785 23-369): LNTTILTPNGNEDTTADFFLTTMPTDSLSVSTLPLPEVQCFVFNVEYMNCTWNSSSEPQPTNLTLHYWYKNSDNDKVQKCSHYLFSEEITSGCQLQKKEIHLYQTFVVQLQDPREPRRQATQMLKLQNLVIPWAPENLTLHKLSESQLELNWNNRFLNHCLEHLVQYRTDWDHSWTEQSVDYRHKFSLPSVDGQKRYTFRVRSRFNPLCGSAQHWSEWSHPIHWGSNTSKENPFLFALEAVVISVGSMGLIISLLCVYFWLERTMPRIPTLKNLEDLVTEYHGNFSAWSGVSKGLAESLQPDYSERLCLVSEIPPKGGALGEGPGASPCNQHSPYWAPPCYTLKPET
# Experiments:
# [1] = test system: IL-2 induced p-STAT3; experiment: Suppression of p-STAT in PBMC, IL-2; type: cell-based, human; details: antibody 10 μg/ml, compared to isotype control
# Protocol: (§1) Given numbers refer to the percentage of inhibition compared to isotype control stimulated with respective γc cytokine. Antibody concentration is 10 μg/ml.
# [2] = test system: IL-4 induced p-STAT6; experiment: Suppression of p-STAT in PBMC, IL-4; type: cell-based, human; details: antibody 10 μg/ml, compared to isotype control
# From the text: PBMC isolated from healthy individuals (iXCells Biotechnologies, San Diego, USA) is chosen as the primary immune cell culture to conclude the efficacies of anti-γc antibodies in the primary cells. As STAT phosphorylation could be triggered by the treatment of all six γc cytokines (except IL-9) in the PBMC culture (FIG. 12A-B), inhibition of p-STAT could be used as an indicator to confirm the efficacies of anti-γc antibodies.
# as §1
# [3] = test system: IL-7 induced p-STAT5; experiment: Suppression of p-STAT in PBMC, IL-7; type: cell-based, human; details: antibody 10 μg/ml, compared to isotype control
# Protocol: as §1
# [4] = test system: IL-21 induced p-STAT3; experiment: Suppression of p-STAT in PBMC, IL-21; type: cell-based, human; details: antibody 10 μg/ml, compared to isotype control
# Protocol: as §1
# [5] = Structural stability by SEC-HPLC; type: physicochemical; details: for purity by SEC-HPLC after incubation: 12 days after PBS exchange at RT and 37° C.
# Protocol: Next, structural stabilities of hSM-05A and hSM-05E were studied by incubation at either room temperature or 37° C. for around 2 weeks. SEC-HPLC was utilized to measure aggregates and degradation of antibodies. […] No degradation of the antibodies was observed aft er 2 weeks.
# [6] = test system: HaCaT cells; experiment: CDC assay on HaCaT cells with complement; type: cell-based, human; details: 33 nM (5 μg/ml), vs isotype antibody
# Protocol: γc expressing human keratinocyte HaCaT cell line was utilized as the target cells in ADCC and CDC assays. To determine the ADCC activity, HaCaT cell was pre-binded with anti-γc antibodies before co-culture with human PBMC. To determine the CDC activity, HaCaT cell was pre-binded with anti-γc antibodies before incubation with low-endotoxin complement proteins extracted from guinea pig. ADCC was determined by percentage of PI+ HaCaT cells in flow cytometry analysis while CDC was measured by the WST-8 proliferative assay of HaCaT cells in a 96-well plate (FIG. 22A).
# [7] = molecular target: T1, γc proteins from human; experiment: ELISA binding of full-length antibodies to human γc; details: humanized antibodies with back-mutation
# Protocol: Selected clones of full-length antibodies were evaluated by ELISA to access the binding specificity. The binding activities of full-length anti-γc antibody were investigated using γc proteins (extracellular domain) from human (SEQ ID NO: 205-206), cynomolgus (Sequence ID: XP_005593949.1, SEQ ID NO: 207-208) and chimpanzee (Sequence ID: XP_008971810.1, SEQ ID NO: 209-210) either purchased from Sino Biological or in-house generated.
# Humanized antibodies with back-mutation (hSM-05A and hSM-05E) were tested in the following assays. Binding affinities were investigated in the ELISA assays.
# [8] = test system: granzyme and IFNγ secretion; experiment: Secretion of granzymes and IFNγ from PBMC culture, ELISA; type: cell-based, human; details: IL-2 or IL-15, 33 nM, humanized antibodies
# Protocol: Activation of T and NK cells in the PBMC culture could be studied by granzyme and IFNγ secretion [Carlin et al., Blood., 2005; 106 (12): 3874-9; Grossman et al., Blood., 2004; 104 (9): 2840-8; Keppel et al., J Immunol., 2015; 194 (4): 1954-1962; Tamang et al., Cytokine., 2006; 36 (3-4): 148-59]. Similar results are obtained in-house that IL-2 and IL-15 but not IL-21 could trigger secretion of granzyme A and IFNγ in PBMC culture (FIG. 15A-B).
# Antibodies or ritlecitinib were added into the PBMC culture to investigate their inhibitory effects in the presence of IL-2 or IL-15 treatment.
# Releases of cytolytic agents from PBMC culture were further evaluated by ELISA assays.
# [9] = molecular target: T2, native γc proteins from human; experiment: Binding to native human γc on transfected HEK-293 cells, flow cytometry; type: cell-based; details: FITC-labelled antibody 33 nM (5 μg/ml)
# Protocol: The binding specificities of humanized anti-γc antibodies to native γc proteins were further evaluated by […] binding assay. In brief, human HEK-293 cells were transfected with plasmid expressing full length γc protein from human, rhesus, cynomolgus or common marmoset. Two days later, transfected cells or non-transfected controls were incubated with FITC-conjugated hSM-05A on ice for an hour before analysis by flow cytometry.
# [10] = molecular target: T3, human γc protein; experiment: Competition assay on Ramos B cells, flow cytometry; type: binding; details: unconjugated hSM-05A then FITC-conjugated hSM-05E, 33 nM
# Protocol: Purified anti-γc antibodies were conjugated to FITC fluorescent dye and used for the competition assay. In brief, human γc expressing Ramos B cells were first labelled with unconjugated hSM-05A for an hour before further incubation with FITC-conjugated hSM-05E.
# [11] = room temperature or 37° C. for around 2 weeks
Molecule,"IL-2 induced p-STAT3, percentage of inhibition [1] [%]","IL-4 induced p-STAT6, percentage of inhibition [2] [%]","IL-7 induced p-STAT5, percentage of inhibition [3] [%]","IL-21 induced p-STAT3, percentage of inhibition [4] [%]",purity by SEC-HPLC after incubation [5],"aggregation state after incubation [5, 11]",CDC activity [6],ELISA binding to human γc [7],inhibition of IFNγ secretion [8],binding to native human γc on HEK-293 [9],epitope competition between hSM-05A and hSM-05E [10],"fraction forming aggregates [5, 11]",suppression of granzyme B secretion [8]
"hSM-05A: full-length humanized anti-γc antibody derived from SM-05A by framework patching (antibody, V domains shown) VH: QVQLVQSGAEVLKPGASVKVSCKASGYTFTEYTMHWVKQARGQRLEWIGGIDPYNGGATYNQRFKGKATLTTDTSTSTAYMELRNLRSDDTAVYYCARRRLYYGNALDYWGQGTLVTVSS VL: DIVMTQSPLSLPVTPGEQASISCRSSQSLVHSNGNTYLHWYLQKPGQSPQLLIYKVSSRFSGVPDRFSGSGSGTDFTLKISRVEAEDVGVYFCSQTTHVPFTFGSGTKLEIKR",89.94,17.18,94.17,82.80,around 99.9%,remained as single molecule,could not induce any ADCC nor CDC activities,retained the binding affinity and specificity,comparable inhibition to IFNγ secretion to ritlecitinib,could bind to the native γc proteins from humans and common marmoset,could compete on a similar epitope on the human γc protein,,
"hSM-05E: full-length humanized anti-γc antibody derived from SM-05E by framework patching (antibody, V domains shown) VH: QVQLVQSGAEVLKPGASVKVSCKASGYTFTEYTMHWVKQARGQRLEWIGGIDPNTGGVTYNQKFKGKATLTTDTSTSTAYMELRNLRSDDTAVYYCARRRRYYGYALDYWGQGTLVTVSS VL: DIVMTQSPLSLPVTPGEQASISCRSSQSIVHSNGNTYLEWYLQKPGQSPQLLIYKVSNRFSGVPDRFSGSGSGTDFTLKISRVEAEDVGVYFCSQSTHVPFMFGSGTKLEIKR",58.45,21.74,66.02,100,around 80%,,could not induce any ADCC nor CDC activities,retained the binding affinity and specificity,only offered weak suppression to two agents,,could compete on a similar epitope on the human γc protein,around 20%,only offered weak suppression to two agents
